# Data: the supplement of paper PMC10567573
# B1: TEKT4 (parent)
# chain: SEVEELNMSLTALREKLLEAEQSL
# Variants of: B1
# Test: protein stability index of a GFP-peptide fusion (GPS, HEK-293T) (PSI 1-6); higher = more stable
# Details: c terminus: a fixed tail appended
# 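Also: lentivirally expressed fusions sorted by FACS into six bins by GFP to DsRed ratio, PSI derived from sequencing read proportions per bin multiplied by bin number.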
row,Variant,protein stability index
1,SEVEELNMSLTELREKLLEAEQSL,2.38
2,SEVEELNMSLTQLREKLLEAEQSL,2.29
3,SEVEELNMSLTCLREKLLEAEQSL,2.15
4,SEVEELNMSLTTLREKLLEAEQSL,2.3
5,SEVEELNMSLTMLREKLLEAEQSL,1.9
6,SEVEELNMSLTYLREKLLEAEQSL,2.47
7,SEVEELNMSLTHLREKLLEAEQSL,2.76
8,SEVEELNMSLTSLREKLLEAEQSL,2.46
9,SEVEELNMSLTILREKLLEAEQSL,2.36
10,SEVEELNMSLTPLREKLLEAEQSL,4.15
11,SEVEELNMSLTRLREKLLEAEQSL,2.54
12,SEVEELNMSLTKLREKLLEAEQSL,3.17
13,SEVEELNMSLTDLREKLLEAEQSL,3.48
14,SEVEELNMSLTGLREKLLEAEQSL,2.56
15,SEVEELNMSLTWLREKLLEAEQSL,2.56
16,SEVEELNMSLTLLREKLLEAEQSL,2.27
17,SEVEELNMSLTVLREKLLEAEQSL,3.06
18,SEVEELNMSLTFLREKLLEAEQSL,2.37
19,SEVEELNMSLTNLREKLLEAEQSL,1.73
20,SEVEELNMSLTAYREKLLEAEQSL,4.34
21,SEVEELNMSLTADREKLLEAEQSL,5.55
22,SEVEELNMSLTAEREKLLEAEQSL,5.42
23,SEVEELNMSLTAIREKLLEAEQSL,4.14
24,SEVEELNMSLTAMREKLLEAEQSL,3.32

row,Variant,protein stability index
1,SEVEELNMSLTAGREKLLEAEQSL,5.15
2,SEVEELNMSLTAQREKLLEAEQSL,4.47
3,SEVEELNMSLTANREKLLEAEQSL,4.87
4,SEVEELNMSLTAAREKLLEAEQSL,4.86
5,SEVEELNMSLTAKREKLLEAEQSL,4.76
6,SEVEELNMSLTATREKLLEAEQSL,5.4
7,SEVEELNMSLTACREKLLEAEQSL,4.68
8,SEVEELNMSLTAHREKLLEAEQSL,5.21
9,SEVEELNMSLTAVREKLLEAEQSL,4.55
10,SEVEELNMSLTASREKLLEAEQSL,4.8
11,SEVEELNMSLTAWREKLLEAEQSL,3.18
12,SEVEELNMSLTAFREKLLEAEQSL,4.49
13,SEVEELNMSLTARREKLLEAEQSL,4.83
14,SEVEELNMSLTAPREKLLEAEQSL,4.47
15,SEVEELNMSLTALIEKLLEAEQSL,2.83
16,SEVEELNMSLTALAEKLLEAEQSL,3.48
17,SEVEELNMSLTALPEKLLEAEQSL,5.3
18,SEVEELNMSLTALDEKLLEAEQSL,5.52
19,SEVEELNMSLTALFEKLLEAEQSL,2.42
20,SEVEELNMSLTALEEKLLEAEQSL,4.63
21,SEVEELNMSLTALCEKLLEAEQSL,3.37
22,SEVEELNMSLTALTEKLLEAEQSL,3.62
23,SEVEELNMSLTALWEKLLEAEQSL,2.58
24,SEVEELNMSLTALKEKLLEAEQSL,3.94

row,Variant,protein stability index
1,SEVEELNMSLTALVEKLLEAEQSL,2.07
2,SEVEELNMSLTALYEKLLEAEQSL,2.46
3,SEVEELNMSLTALGEKLLEAEQSL,4.19
4,SEVEELNMSLTALMEKLLEAEQSL,2.02
5,SEVEELNMSLTALNEKLLEAEQSL,4.79
6,SEVEELNMSLTALLEKLLEAEQSL,2.05
7,SEVEELNMSLTALSEKLLEAEQSL,4.41
8,SEVEELNMSLTALQEKLLEAEQSL,3.99
9,SEVEELNMSLTALHEKLLEAEQSL,3.87
10,SEVEELNMSLTALRDKLLEAEQSL,2.97
11,SEVEELNMSLTALRAKLLEAEQSL,2.2
12,SEVEELNMSLTALRCKLLEAEQSL,2.24
13,SEVEELNMSLTALRFKLLEAEQSL,2.27
14,SEVEELNMSLVALREKLLEAEQSL,2.36
15,SEVEELNMSLQALREKLLEAEQSL,3.65
16,SEVEELNMSLPALREKLLEAEQSL,3.31
17,SEVEELNMSLYALREKLLEAEQSL,1.81
18,SEVEELNMSLLALREKLLEAEQSL,2.8
19,SEVEELNMSLAALREKLLEAEQSL,3.49
20,SEVEELNMSLIALREKLLEAEQSL,2.35
21,SEVEELNMSLCALREKLLEAEQSL,2.82
22,SEVEELNMSLEALREKLLEAEQSL,4.1
23,SEVEELNMSLHALREKLLEAEQSL,2.5
24,SEVEELNMSLKALREKLLEAEQSL,3.15

row,Variant,protein stability index
1,SEVEELNMSLDALREKLLEAEQSL,4.13
2,SEVEELNMSLNALREKLLEAEQSL,3.02
3,SEVEELNMSLMALREKLLEAEQSL,2.51
4,SEVEELNMSLSALREKLLEAEQSL,2.92
5,SEVEELNMSLWALREKLLEAEQSL,2.09
6,SEVEELNMSLRALREKLLEAEQSL,3.1
7,SEVEELNMSLFALREKLLEAEQSL,1.76
8,SEVEELNMSLGALREKLLEAEQSL,3.02
9,SEVEELNMSSTALREKLLEAEQSL,3.64
10,SEVEELNMSGTALREKLLEAEQSL,3.74
11,SEVEELNMSFTALREKLLEAEQSL,3.23
12,SEVEELNMSMTALREKLLEAEQSL,2.64
13,SEVEELNMSTTALREKLLEAEQSL,3.29
14,SEVEELNMSRTALREKLLEAEQSL,3.97
15,SEVEELNMSKTALREKLLEAEQSL,3.73
16,SEVEELNMSVTALREKLLEAEQSL,2.25
17,SEVEELNMSYTALREKLLEAEQSL,2.93
18,SEVEELNMSWTALREKLLEAEQSL,2.68
19,SEVEELNMSITALREKLLEAEQSL,1.9
20,SEVEELNMSHTALREKLLEAEQSL,3.26
21,SEVEELNMSQTALREKLLEAEQSL,4.14
22,SEVEELNMSNTALREKLLEAEQSL,4.09
